Changes are numbered by the printed parent chain. Each block holds one binder with its values, some of them ahead of it.
Biological target: human TREM2 extracellular domain (ECD) (Homo sapiens, UniProt Q9NZC2)
Sequence (Q9NZC2 19-174): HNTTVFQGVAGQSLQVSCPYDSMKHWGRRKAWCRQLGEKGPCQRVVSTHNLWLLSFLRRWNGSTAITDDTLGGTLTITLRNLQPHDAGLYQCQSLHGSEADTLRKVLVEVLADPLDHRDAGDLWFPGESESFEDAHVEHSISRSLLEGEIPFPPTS

binding result: binds
B3: R18-13-29 (antibody, V domains shown)
VH: AVQLVESGGGLVQPKESLKVSCAASGFTFSNADIYWVRQAPGKGLEWVARIRTKPNNYATYYGDSVKGRFTISRDDSKSMVYLQMDNLKTEDTAMYYCTAGEGLWVNYFDYWGQGVMVTVSS
VL: DIVMTQSPSSLAVSAGETVTIDCKSSQSLLYSGNQKTYLAWYQQKPGQSPKLLIYWASTRQSGVPDRFIGSGSGTDFTLTISSVQAEDLAIYYCQQYYDTPLTFGSGTKLEIK

binding result: binds
B5: R18-11-05 (antibody, V domains shown)
VH: AVQLVESGGGLVQPKASLKISCVASGFTFSKNAMYWVRQAPGKGLEWVARIRTKPNNYAAYYADSVKGRFTISRDDSESMVYLQMDNLKTEDTAMYYCTAGDFNSPFDFWGQGVMVTVSS
VL: B3 VL

binding result: binds
B7: R18-11-02 (antibody, V domains shown)
VH: AVQLVESGGGLVQPKESLKISCAASGFTFSNAAMYWVRQAPGKGLEWVARIRTKPNNYATYYADSMKGRFTISRDDSKSMVYLQMGNLKTEDTAMYYCTAELITTAFDYWGQGVMVTVSS
VL: B3 VL

binding result: binds
B10: R18-12-21 (antibody, V domains shown)
VH: AVQLVESGGGLVQPKESLKLSCAASGFTFSDAAMYWVRQAPGKGLEWVARIRTKPNNYATYYADSVKGRFTISRDDSKSMVYLQMDNLKTEDTAMYYCTALFLIVAPFAYWGQGTLVTVSS
VL: B3 VL

binding result: binds
B14: R18-12-24 (antibody, V domains shown)
VH: B10 VH with L20I, D31N, L101D, F102Y, L103S, I104S, V105Y, A106I, P107R
VL: B3 VL

binding result: binds
B16: R18-13-35 (antibody, V domains shown)
VH: AVQLVESGGGLVQPRESLKISCAASGFTFSNAAMYWVRQAPGKGLEWVARIRTKANNYATNYADSLKGRFIISRDDSKSVVYLQMGNLKPEDTAMYYCTAGDTMGPHWFVYWGQGTLVTVSS
VL: B3 VL

binding result: binds
B19: R18-12-22 (antibody, V domains shown)
VH: B10 VH with L20I, D31N, M34I, L101G, F102Y, L103Y, I104S, V105G, A106G
VL: B3 VL

binding result: binds
B24: R18-11-10 (antibody, V domains shown)
VH: AVQLVESGGGVVRPKESLRISCAASGFTFSNVAMYWVRQAPGKGLEWVARIRTKPNNYATNYADSVKGRFTISRDDSNSMVNLQMENLKTEDTAMYYCTAVGGHNWFAYWGQGTLVTVSS
VL: B3 VL

binding result: binds
B25: R18-13-32 (antibody, V domains shown)
VH: AVQLVESGGGLVQPKESLKISCAASGFTFSYAAMYWVRQAPGKGLEWVARIRSKPNNYATYYADSVKGRFTISRDDSKSMVYLQMDNLKTEDTAMYYCTAPYYYDGSPFEYWGQGVMVTVSS
VL: B3 VL

binding result: binds
B27: R18-11-03 (antibody, V domains shown)
VH: AVQLVESGGGLVRPKESLKISCAASGFTFSNAAMYWVRQAPGKGLEWVARIRSKPNNYATHYADSVKGRFIISRDDSKGMVYLQMDNLKTEDTAKYYCTAAGGGYGFDDWGQGVMVTVSS
VL: B3 VL

binding result: binds
B28: R18-12-17 (antibody, V domains shown)
VH: AVQLVESGGGLVKPKESLKISCAASGFTFSNAAMYWVRQAPGKGLDWVARIRTKPYNYATFYADSVKGRFTISRDDSKNMVYLQMDNLKTEDTAVYYCTTDGEPRPRFAYWGQGTLVTVSS
VL: B3 VL

binding result: binds
B29: R18-11-06 (antibody, V domains shown)
VH: AVQLVESGGGLVQPKESLKISCAASGFTFSNAAMYWVRQAPGKGLEWVARIRTQPNNYATYYADSVKGRFTISRDDSKSVVYLQMDNLKTADTAMYYCTAGYGYNLFDYWGQGVMVTVSS
VL: B3 VL

binding result: binds
B30: R18-13-27 (antibody, V domains shown)
VH: AVQLVESGGGLVQPKESLKISCAASGFTFSNAAMYWVRQAPGKGLEWVARIRTKPNYHATYYADSVKGRFTISRDDSKSMVYLQMDNLKAEDTAIYYCAASVLYTADSLDYWGQGVMVTVSS
VL: B3 VL

Continued, binder first:

B1: R18-11-01 (antibody, V domains shown)
VH: AVQLVESGGGLVQPKESLKISCAASGFTFINAAIYWVRQAPGKGLEWVARIRTKPDNYATYYADSVKGRFTISRDDSKSMVYLQMHNLKTEDTAMYYCTAATTGIKFDYWGQGVMVTVSA
VL: B3 VL
binding result: binds

B2: R18-11-08 (antibody, V domains shown)
VH: AVQLVESGGGLVQPKESLKISCAASGFTFSNAAMYWVRQAPGKGLEWVARIRTKPNNYATYYADSVKGRFTISRDDSKSMVYLQMDNLKTEDTAMYYCTAAYYSGPFAYWGQGTLVTVSS
VL: B3 VL
binding result: binds

B4: R18-13-30 (antibody, V domains shown)
VH: AVQLVESGGGLVQPKESLKVSCAASGFTFSHAAMYWVRQAPGKGLEWVARITTEPNNYATNYADSVKGRFTISRDDSKSMVFLQMDNMKTEDTAMYYCTAEVRVYPYYFDYWGQGVMVTVSS
VL: B3 VL
binding result: binds

B6: R18-12-14 (antibody, V domains shown)
VH: AVQLVESGGGLVQPKESLKISCAVSGFTFTNAAMYWVRQAPGKGLEWIARIRTQPNNYATYYADSVRGRFTTSRDDSKSMVYLQMDNLKTEDTAMYYCTAGRATGTPFDYWGQGVMVTVSS
VL: B3 VL
binding result: binds

B8: R18-12-23 (antibody, V domains shown)
VH: AVQLVESGGGLVQPKESLKISCAASAFSFSNVAMYWVRQAPGKGLEWIARIRTKPNNYATYYADSVKGRFTISREDSKSMVYLQMDNLKTEDTATYYCTADNYPGGGFRYWGQGTLVTVSS
VL: B3 VL
binding result: binds

B9: R18-12-25 (antibody, V domains shown)
VH: AVQLVESGGGLVRPQESLKISCAASGFTFRDTAMYWVRQAPGKGLEWVARIRTKPNDYATYFADSVKGRFTISRDDSKSMVYLQMDTLKTEDTAMYYCTAPINNWDWFAYWGQGTLVTVSS
VL: B3 VL
binding result: binds

B11: R19-11-36 (antibody, V domains shown)
VH: AVQLVESGGGLVQPKESLKISCAAAGFTFTSAAMYWVRQAPGKGLEWIARIRTKADNIATNYADSVKGRFTISRDDSKNMVYLQMDDLKTEDTAMYYCTAGITTGGFEYWGQGVMVTVSS
VL: B3 VL
binding result: binds

B12: R18-12-20 (antibody, V domains shown)
VH: B10 VH with L20I, F29L, D31T, A32V, T60I, L101P, F102G, L103I, V105R
VL: B3 VL
binding result: binds

B13: R18-13-28 (antibody, V domains shown)
VH: AVQLVESGGGLVQPKESLKISCAASGFTFSNAAMYWVRQAPGKGLEWVARIRTKTNNYATNYADSVKGRFTISRDDSKSMVYLQMDNLKTEDTAMYYCSAARGGWYLWLDYWGQGVMVTVAS
VL: B3 VL
binding result: binds

B15: R18-11-07 (antibody, V domains shown)
VH: AVQLVESGGGLVQPKESLRISCAASGFTFSNAAMYWVRQAPGKGLEWVARIRTKPNSYAPYYADSVRGRFTISRDDSKSMVYLQMDNLKTEDTAMYYCTAGGNSGYSDYWGQGVMVTVSS
VL: B3 VL
binding result: binds

B17: R18-11-12 (antibody, V domains shown)
VH: AVQLVESGGGLVQPKESVKISCAASGFTFSNAAMYWVRQAPGKGLEWIARIRSKPHNHATYYADSVKGRFTISRDDSESMVYLQMDNLKTEDTAMYYCTSDTGPNWFTYWGQGTLVTVSS
VL: B3 VL
binding result: binds

B18: R18-12-18 (antibody, V domains shown)
VH: AVQLVESGGGLVQPKESLKISCAASGFTFRNAAMFWVRQAPGKGLEWVARIRTKPNNFATYYADSVKGRFTISRDDSKSMVYLQMDNLKTEDTAMYYCTGFYNDGAPFDYWGQGTLVTVSS
VL: B3 VL
binding result: binds

B20: R18-11-04 (antibody, V domains shown)
VH: AVQLVESGGGLVQPKESLKISCAASGFTFSNAAMYWVRQAPGKGLEWVARIRTQPNNYATYYADSVKGRFTISRDDAKSMVYLQMDNLKTEDTAMYYCTAGTVEVTSTWWGQGVMVTVSS
VL: B3 VL
binding result: binds

B21: R18-12-19 (antibody, V domains shown)
VH: B10 VH with L20I, D31N, A63T, L101E, F102G, L103S, I104S, V105R, A106N, P107W
VL: B3 VL
binding result: binds

B22: R18-11-11 (antibody, V domains shown)
VH: B2 VH with Y35H, K54R, A101G, Y102T, Y103G, G105S
VL: B3 VL
binding result: binds

B23: R18-13-31 (antibody, V domains shown)
VH: AVQLVESGGGLVQPIESLKISCAASGFTFTNAAMYWVRQAPGKGLEWIARIRTKPNDYATYYADSVKGRFTISRDDSESVVYLQMDNLKTEDTATYYCTAAWDYYSSAFDYWGQGVMVTVSS
VL: B3 VL
binding result: binds

B26: R18-11-13 (antibody, V domains shown)
VH: AVQLVESGGGLVQPKESLKISCAASGFTFSNVAMYWVRQAPRKGLEWVARIRTKPNNYATYYADSVKGRFTISRDDSKSMVYLQMDNLKTDDTAMYYCTAGVYYGSMDAWGQGTSVTVSS
VL: B3 VL
binding result: binds

— paper PMC11437124 (Nature Communications, 2024)
